Data on seven molecules can be found in patent publication US20200040103A1 (Genentech, published 2020).

Test [1] addresses T1, Recombinant human KLK5 residues I67-S293 (SEQ ID NO:328) (human, UniProt Q9Y337 67-293, lysine residues methylated in the 10C5 and 9H5 complexes that gave crystals).
T1 construct: Expressed in Sf9 cells as ubiquitin fusion; ubiquitin removed with Enterokinase; also called Human KLK5 Crystal Structure Experiments
T1 sequence: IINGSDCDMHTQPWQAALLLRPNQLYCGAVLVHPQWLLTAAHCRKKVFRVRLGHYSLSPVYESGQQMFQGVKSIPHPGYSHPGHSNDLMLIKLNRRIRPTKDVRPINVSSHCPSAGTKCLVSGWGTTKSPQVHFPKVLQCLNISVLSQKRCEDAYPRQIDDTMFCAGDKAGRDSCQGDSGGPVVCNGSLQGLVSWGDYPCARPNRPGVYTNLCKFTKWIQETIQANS
Nature of the test: crystal structure of the Fab/KLK5 complex. Here is the method:
Recombinant human KLK5 residues I67-S293 (SEQ ID NO:328) was expressed in a Baculovirus expression system as a C-terminal fusion of ubiquitin with an Enterokinase cleavage site engineered between ubiquitin and KLK5. Sf9 cells were coexpressed with EndoH with 1 mg/mL of Kifunensine. Protein was purified on a HiTrap™ Heparin column. The column was washed with 25 mM TRIS pH 7.5 for 5 CV (column volumes), and then eluted with 0-750 mM NaCl over a gradient of 20 CV. Resultant protein pool was then further purified over 5200 by SEC in 25 mM Tris pH 7.5, 300 mM NaCl. The Ubiquitin was then cleaved using Enterokinase, and sample further purified by SEC again. […] Fab fragments including heavy and light chains were expressed and purified as described. See Carter et al., Biotechnology 10(2), 163-167 (1992). KLK5 was then mixed with each of the Fabs separately, 10C5, 9H5, and 3-3F5, and the complex was purified by SEC in 25 mM HEPES pH 7.2, 100 mM NaCl. […] Crystal for the 10C5 and 9H5 complexes were only obtained when the lysine residues in the protein complexes were methylated. See Walter et al., Structure, 14(11), 1617-1622 (2006).

The target in test [2] is human KLK1 (human, UniProt P06870 25-262, limits assumed). Nature of the test: array SPR imaging, antibody immobilized. Here is the method: (§1) An array-based SPR imaging system (Carterra™, USA) was used to epitope bin a panel of 288 monoclonal antibodies. Purified antibodies were diluted at 10 μg/ml in 10 mM sodium acetate buffer pH 4.5. Using amine coupling, antibodies were directly immobilized onto a SPR sensorprism CMD 200M chip (XanTec Bioanalytics GmbH, Germany) using a Continuous Flow Microspotter (Carterra™, USA) to create an array of 288 antibodies. For analysis, the IBIS MX96 SPRi (Carterra™, USA) was used to evaluate analytes binding to the immobilized ligands. For kinetic analyses, human, cyno and murine KLK5 were injected for 3 minutes from 0 to 300 nM at 3-fold dilution followed by a dissociation period of 10 minutes. Human KLK1, KLK4, and KLK7 were injected at a single concentration of 500 nM to ensure the specificities of the antibodies. For epitope binning against SPINK9-Fc-SRE, human KLK5 was first injected for 4 minute at 100 nM and was followed by a second 4 minute injection of SPINK9-Fc-SRE at 10 μg/ml. The surface was regenerated with 10 mM glycine pH1.5 between cycles. The experiment was performed at 25° C. in a running buffer of HBS-T buffer (0.01M HEPES pH 7.4, 0.15M NaCl, 0.05% surfactant P20). The kinetic data was processed using Scrubber 2.0 (BioLogic™ Software) and the epitope binning data was processed using Wasatch binning software tool (Carterra™, USA).
Chain of human KLK1 (P06870 25-262 limits assumed): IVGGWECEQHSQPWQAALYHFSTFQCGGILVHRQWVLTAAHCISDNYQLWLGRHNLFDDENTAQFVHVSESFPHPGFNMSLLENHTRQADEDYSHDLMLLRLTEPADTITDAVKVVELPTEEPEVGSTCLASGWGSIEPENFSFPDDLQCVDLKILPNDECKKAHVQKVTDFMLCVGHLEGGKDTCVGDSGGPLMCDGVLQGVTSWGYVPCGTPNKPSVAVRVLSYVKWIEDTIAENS

Test [3] addresses human KLK4 (human, UniProt Q9Y5K2 31-254, limits assumed). Nature of the test: array SPR imaging, antibody immobilized. Here is the method: as §1
In test [4] the target is human KLK7 (human, UniProt P49862 30-253, limits assumed). Nature of the test: array SPR imaging, antibody immobilized. Here is the method: as §1
Chain of human KLK7 (P49862 30-253 limits assumed): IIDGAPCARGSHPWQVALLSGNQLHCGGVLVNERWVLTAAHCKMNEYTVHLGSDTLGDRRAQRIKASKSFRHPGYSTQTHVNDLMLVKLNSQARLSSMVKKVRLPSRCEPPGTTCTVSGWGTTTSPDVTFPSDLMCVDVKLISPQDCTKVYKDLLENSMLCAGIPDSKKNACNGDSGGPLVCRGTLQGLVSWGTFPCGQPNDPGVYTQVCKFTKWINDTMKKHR

Residue numbers refer to the chain shown, from its start.

Chain of human KLK4 (Q9Y5K2 31-254 limits assumed): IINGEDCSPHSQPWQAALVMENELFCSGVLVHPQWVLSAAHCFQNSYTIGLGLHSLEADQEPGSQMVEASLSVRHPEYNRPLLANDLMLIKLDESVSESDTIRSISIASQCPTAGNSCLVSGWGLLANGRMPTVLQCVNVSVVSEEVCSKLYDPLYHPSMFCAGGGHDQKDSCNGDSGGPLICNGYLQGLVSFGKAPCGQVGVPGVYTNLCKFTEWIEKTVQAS

B1: 10C5 Fab (Fab, V domains shown)
VH: EVQLVESGGGLVQPGGSLRLSCAASGFSLSSYGVTWVRQAPGKGLEWIGYITSNYGVSYYASWAKSRSTISRDTSKNTVYLQMGSLRAEDMAVYYCARENPDYGYAYDAWGQGTTVTVSS
VL: AIRMTQSPSSFSASTGDRVTITCQASESISNELSWYQQKPGKAPKLLIYYASTLASGVPSRFSGSGSGTDFTLTISSLQPEDFATYYCAQGFGSSGVENVFGGGTKVEIKR
notes: Fab used for crystallization with human KLK5; lysines of the complex were methylated; also called Fab 10C5 Humanized
B1: the buried surface area in test [1] is ~860 Å^2.

B2: 9H5 Fab (Fab, V domains shown)
VH: EVQLVESGGGLIQPGGSLRLSCAASGFSLSSYGVSWVRQAPGKGLEYVGFIGSGGFAYYASWAKSRFTISRDNSKNTLYLQMNSLRAEDTAVYYCARDDVGGGKSLDIWGQGTLVTVSS
VL: DIQMTQSPSSLSASVGDRVTITCQASQSISSYLSWYQQKPGKAPKLLIYSASTLASGVPSRFSGSGSGTDFTLTISSLQPEDFATYYCHQDYTSSNVDNTFGGGTKVEIKR
notes: Fab used for crystallization with human KLK5; lysines of the complex were methylated; also called Fab 9H5 Humanized
B2: the buried surface area in test [1] turned out to be 805 Å^2.

B3: 3-3F5 Fab (Fab, V domains shown)
VH: EVQLLESGGGLVQPGGSLRLSCAVSGFSLNDYGVSWVRQAPGKGLEWVGAIGSSGVAWYANFAKGRFTISRDNSKNTLYLQMNSLRAEDTAVYYCARDRDYGYRADDATSGMDLWGRGTLVTVSS
VL: AIRMTQSPSSFSASTGDRVTITCQASESIGNALAWYQQKPGKAPKLLIYDASDLASGVPSRFSGSGSGTDFTLTISSLQPEDFATYYCQQGDSHNNVDNIFGGGTKVEIKR
notes: Fab used for crystallization with human KLK5; also called 3F5.5 Fab; Fab 3-3F5 Humanized
Turning to B3, the buried surface area in test [1] amounted to 956 Å^2.

B4: 14C8 (antibody, V domains shown)
VH: EVQLVESGGGLVQPGRSLKLSCTASGFTFSDYNMAWVRQAPKGGLEWVTTISYDAGRTYYRDSVKGRFTISRDNAKRTLSLQMDSLRSEDTATYYCATGIFNYGTDYFDYWGQGVMVTVSS
VL: DIQMTQSPASLSASLGETVTIQCRASEDIYSGLAWYQQKPGKSPQLLIYGATTLHDGVPSRFSGSGSGTQYSLKISSMHSEDEGIYFCHQGLSFPYTFGAGTKLELK
In the case of B4, the binding result in test [2], in test [3] and in test [4] was “no binding (tested: 500 nM)” each time.

B5: 14E12 (antibody, V domains shown)
VH: EVQLVESGGGLVRPGRSLRLSCAASGFTFSDYYMAWVRQAPTKGLEWVASISYDGDTTYYRDSVKGRFTISRDNARSSLYLQMDSLRSDDTANYFCTTDGTIPAGSWFAYWGQGTLVTVSS
VL: DIQMTQSPASLSASLGETVTIECLASKNIYRNLAWYQQKPGKSPQFLISDASRLQDGVPSRFTGSDSGSQYSLKINSLQSEDVATYFCQQYHDYPYTFGAGTKLELK
As for B5, the binding result in test [2], in test [3] and in test [4] was “no binding (tested: 500 nM)” in each case.

B6: 8E11 (antibody, V domains shown)
VH: QEQLEESGGDLVKPEGSLTLTCTASGFSFSSSYWICWVRQAPGKGLEWIACVYGLDVNIYYASWTKGRFTISKTSSTTVTLQMTSLTAADTATYFCARGGGSADFGFDLWGPGTLVTVSS
VL: DVVMTQTASPVSAAVGGTVTIKCQASENIYSLLAWYQQKPGQPPKVLIYDASDLASGVPSRFKGSGSGTQFTLTISDLECADAATYYCQATAYGSSGNAFGGGTEVVVK
Take B6: the binding result in test [2], in test [3] and in test [4] was “no binding (tested: 500 nM)” in each case.

B7: 8G10 (antibody, V domains shown)
VH: QSLEESGGDLVKPEGSLTLTCTASGFSFSTSYWICWVRQAPGKGLEWIACVYGLDVNIYYASWTEGRFTISKTSSTTVTLQVTSLTAADTATYFCARGGGSADFGFDLWGPGTLVTVSS
VL: B6 VL with A8P, S9A, P10S, A13E, A14P
As for B7, the binding result in test [2], in test [3] and in test [4] was “no binding (tested: 500 nM)” throughout.
